Results as given in patent EP2778173A1 (dated 2014).

Biological target: T1, recombinant EF produced in our laboratory (Bacillus anthracis, UniProt P40136 34-800)
T1 sequence: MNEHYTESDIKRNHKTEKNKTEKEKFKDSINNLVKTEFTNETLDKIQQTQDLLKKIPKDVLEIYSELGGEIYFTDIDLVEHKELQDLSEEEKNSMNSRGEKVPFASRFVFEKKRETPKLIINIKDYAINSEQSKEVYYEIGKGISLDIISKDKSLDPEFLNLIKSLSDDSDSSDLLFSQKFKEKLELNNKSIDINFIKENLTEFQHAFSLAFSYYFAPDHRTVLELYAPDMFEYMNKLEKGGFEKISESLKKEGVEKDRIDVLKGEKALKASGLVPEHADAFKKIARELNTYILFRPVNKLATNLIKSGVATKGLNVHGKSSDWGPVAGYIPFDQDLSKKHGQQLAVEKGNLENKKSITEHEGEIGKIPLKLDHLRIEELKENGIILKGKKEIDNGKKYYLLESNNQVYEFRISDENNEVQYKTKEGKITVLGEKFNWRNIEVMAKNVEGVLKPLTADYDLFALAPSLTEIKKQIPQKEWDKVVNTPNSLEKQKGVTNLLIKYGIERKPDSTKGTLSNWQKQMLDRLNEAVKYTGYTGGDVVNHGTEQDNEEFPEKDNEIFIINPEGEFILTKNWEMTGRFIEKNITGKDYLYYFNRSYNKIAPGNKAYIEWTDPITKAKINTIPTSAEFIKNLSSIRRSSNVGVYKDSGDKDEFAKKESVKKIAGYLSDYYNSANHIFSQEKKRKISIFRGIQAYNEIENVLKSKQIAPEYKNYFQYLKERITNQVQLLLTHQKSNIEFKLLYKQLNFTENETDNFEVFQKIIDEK
Test: SPR (Biacore X), scFv 2LF on CM5 chip, Native EF in solution; Table 2

B1: scFv 2LF (scFv, V domains shown)
VH: QVQLVESGGGVVQPGRSLRLSCAASGFAFDSTAMHWVRQAPGKGLEWVAVISTGGSTYYADSVKGRFTISRDNSNNTLYLQMNSLRAEDTAVYYCAKAVRGYIGSRGPLDVWGQGTMVTVSS
VL: DIQMTQSPSSVSASVGDRVTITCRASQGISSWLAWYQQKPGKAPKLLIYKASSLQSGVPSRFSGSGSGTDFTLTISSLQPEDFATYYCQQYSTSPITFGGGTKVEIK
Work on B1 yielded a koff of 0.00051 s⁻¹.
